Article PMC9381698, “Generation of synthetic antibody fragments with optimal complementarity determining region lengths for Notch-1 recognition” (Frontiers in Microbiology, 2022)

Legend:
Details in all cases: both partners purified
[1] = target: T1, Jagged-2 receptor ectodomain (Homo sapiens (assumed), UniProt Q9Y219); assay: BLI; Octet RED384; Fabs immobilised on amine-reactive generation-2 or anti-Fab CH1 biosensors, target proteins in solution at three or more concentrations; 25 C, PBS; global 1:1 fit; apparent KD (Fc-Notch proteins may dimerize, avidity)
T1 construct: Jagged-2 ectodomain; it may be an Fc fusion like the Notch proteins; also called J2

[2] = target: T2, recombinant Fc-tag-fused human Notch-1 extracellular domain (Homo sapiens, UniProt P46531); assay: as above
T2 construct: Notch-1, human, extracellular domain; No catalogue number and no residue limits are printed; also called N1; source: bought: R&D Systems

[3] = target: T2, recombinant Fc-tag-fused human Notch-1 …; assay: ELISA; multi-point Fab-ELISA: target immobilised at 5 ug/ml on MaxiSorp plates; purified Fab 0.01 nM-1 uM in PT for 30 min; detected with HRP-conjugated anti-HIS antibody; EC50 from a one-site specific-binding fit

T2 sequence (P46531 19-1735): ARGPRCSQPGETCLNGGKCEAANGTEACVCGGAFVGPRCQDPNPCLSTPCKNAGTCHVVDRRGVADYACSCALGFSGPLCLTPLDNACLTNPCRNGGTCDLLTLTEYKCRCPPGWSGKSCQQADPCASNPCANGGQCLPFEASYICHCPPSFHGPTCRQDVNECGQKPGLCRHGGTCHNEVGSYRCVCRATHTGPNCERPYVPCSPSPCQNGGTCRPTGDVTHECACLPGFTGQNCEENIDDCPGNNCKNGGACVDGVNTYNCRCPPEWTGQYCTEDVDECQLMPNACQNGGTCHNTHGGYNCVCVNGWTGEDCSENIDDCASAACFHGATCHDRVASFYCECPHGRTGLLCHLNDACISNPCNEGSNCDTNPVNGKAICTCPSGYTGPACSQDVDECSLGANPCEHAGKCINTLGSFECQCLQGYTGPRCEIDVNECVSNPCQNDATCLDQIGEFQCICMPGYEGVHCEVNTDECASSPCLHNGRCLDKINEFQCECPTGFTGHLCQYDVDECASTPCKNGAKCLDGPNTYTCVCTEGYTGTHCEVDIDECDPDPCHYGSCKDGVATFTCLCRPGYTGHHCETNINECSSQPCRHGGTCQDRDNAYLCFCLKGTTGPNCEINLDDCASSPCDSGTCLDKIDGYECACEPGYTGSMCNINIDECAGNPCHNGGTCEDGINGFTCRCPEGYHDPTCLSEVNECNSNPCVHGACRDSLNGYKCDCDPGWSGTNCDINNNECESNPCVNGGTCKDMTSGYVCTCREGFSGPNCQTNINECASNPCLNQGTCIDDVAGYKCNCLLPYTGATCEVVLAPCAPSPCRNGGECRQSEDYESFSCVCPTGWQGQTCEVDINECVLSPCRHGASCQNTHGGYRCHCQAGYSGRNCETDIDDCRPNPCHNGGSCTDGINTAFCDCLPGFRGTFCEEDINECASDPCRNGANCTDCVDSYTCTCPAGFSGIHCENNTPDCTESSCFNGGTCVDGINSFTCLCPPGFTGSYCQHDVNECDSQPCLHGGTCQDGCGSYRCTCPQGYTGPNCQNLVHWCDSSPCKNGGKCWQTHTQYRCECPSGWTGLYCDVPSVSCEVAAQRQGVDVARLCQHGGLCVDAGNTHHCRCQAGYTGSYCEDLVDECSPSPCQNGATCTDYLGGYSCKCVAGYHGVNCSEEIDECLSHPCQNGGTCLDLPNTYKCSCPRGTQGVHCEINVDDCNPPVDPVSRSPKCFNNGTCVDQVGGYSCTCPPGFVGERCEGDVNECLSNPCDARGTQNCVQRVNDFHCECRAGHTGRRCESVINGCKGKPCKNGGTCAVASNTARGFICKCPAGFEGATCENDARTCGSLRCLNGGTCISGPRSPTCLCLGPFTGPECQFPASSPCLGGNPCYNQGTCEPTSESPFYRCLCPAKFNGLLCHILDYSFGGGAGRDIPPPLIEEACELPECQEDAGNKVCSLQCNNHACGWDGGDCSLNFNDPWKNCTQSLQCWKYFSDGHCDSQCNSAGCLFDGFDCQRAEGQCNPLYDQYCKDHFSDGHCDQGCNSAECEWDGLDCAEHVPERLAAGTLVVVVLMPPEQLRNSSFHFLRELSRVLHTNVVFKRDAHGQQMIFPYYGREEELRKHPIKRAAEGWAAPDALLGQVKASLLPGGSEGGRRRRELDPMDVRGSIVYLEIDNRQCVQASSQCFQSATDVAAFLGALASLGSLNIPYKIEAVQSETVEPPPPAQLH
T1 sequence (Q9Y219 27-1080): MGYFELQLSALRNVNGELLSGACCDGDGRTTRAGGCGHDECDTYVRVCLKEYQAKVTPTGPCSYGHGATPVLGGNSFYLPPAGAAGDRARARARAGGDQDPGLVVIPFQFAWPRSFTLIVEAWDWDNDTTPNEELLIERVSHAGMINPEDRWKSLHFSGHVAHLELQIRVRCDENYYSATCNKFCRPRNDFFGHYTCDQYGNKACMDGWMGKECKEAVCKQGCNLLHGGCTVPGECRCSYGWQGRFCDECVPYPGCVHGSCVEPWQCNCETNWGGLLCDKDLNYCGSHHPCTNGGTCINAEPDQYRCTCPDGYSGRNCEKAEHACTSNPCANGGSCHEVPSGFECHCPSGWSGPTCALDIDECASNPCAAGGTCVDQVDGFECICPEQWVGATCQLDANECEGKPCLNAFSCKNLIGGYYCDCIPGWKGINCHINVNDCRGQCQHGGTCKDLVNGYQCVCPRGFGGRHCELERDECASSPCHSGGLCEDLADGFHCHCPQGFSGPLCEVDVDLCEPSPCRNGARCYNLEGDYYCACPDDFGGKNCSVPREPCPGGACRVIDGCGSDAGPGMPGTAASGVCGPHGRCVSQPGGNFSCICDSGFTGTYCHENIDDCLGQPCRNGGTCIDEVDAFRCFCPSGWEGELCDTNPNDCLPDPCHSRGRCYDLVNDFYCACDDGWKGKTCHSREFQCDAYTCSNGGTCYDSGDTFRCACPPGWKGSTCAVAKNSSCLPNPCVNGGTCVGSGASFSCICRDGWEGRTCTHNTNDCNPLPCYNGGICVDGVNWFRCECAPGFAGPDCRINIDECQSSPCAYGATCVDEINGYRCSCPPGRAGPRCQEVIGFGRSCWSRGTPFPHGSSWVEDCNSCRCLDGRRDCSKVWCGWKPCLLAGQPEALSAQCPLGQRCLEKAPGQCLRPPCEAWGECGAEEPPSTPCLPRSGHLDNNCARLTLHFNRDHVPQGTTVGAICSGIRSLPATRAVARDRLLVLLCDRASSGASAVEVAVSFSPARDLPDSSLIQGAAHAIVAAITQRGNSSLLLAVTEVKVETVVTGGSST

Kd [1]: 70.4 ± 2.3 nM
Kd [2]: 1.38 nM
EC50 [3]: ~4 nM
B1: Fab N1/F/R2 (purified soluble Fab) (Fab, V domains shown)
VH: EVQLVESGGGLVQPGGSLRLSCAASGFNFSSSSIHWVRQAPGKGLEWVASIYSYYGYTYYADSVKGRFTISADTSKNTAYLQMNSLRAEDTAVYYCARSWWGGSWYAALDYWGQGTLVTVSS
VL: DIQMTQSPSSLSASVGDRVTITCRASQSVSSAVAWYQQKPGKAPKLLIYSASSLYSGVPSRFSGSRSGTDFTLTISSLQPEDFATYYCQQWWSLITFGQGTKVEIK
notes: light chain on the modified trastuzumab framework of Library-F (Persson et al., 2013); CDRs L1 and L2 fixed; clone reconstructed from NGS information; Fab heavy chain on the modified trastuzumab framework of Library-F; medium CDRH3 length; The Fab is detected by an anti-HIS antibody; source: E. coli BL21, purified (Protein-L resin)
